Tests used:
AP2β2 (Homo sapiens) = AP2β2 (Homo sapiens) (UniProt P63010); assay: EPR; details: cited from earlier work
[1] = target: arrestin2^1-418 (full-length human arrestin2) (human) (UniProt P49407)
[2] = target: CCR5pp3 phosphopeptide C-terminal phosphopeptide (Homo sapiens) (UniProt P51681); details: cited from earlier work
AP2β2 = target: T1, AP2β2 (Homo sapiens, UniProt P63010); assay: SEC
T1 chain: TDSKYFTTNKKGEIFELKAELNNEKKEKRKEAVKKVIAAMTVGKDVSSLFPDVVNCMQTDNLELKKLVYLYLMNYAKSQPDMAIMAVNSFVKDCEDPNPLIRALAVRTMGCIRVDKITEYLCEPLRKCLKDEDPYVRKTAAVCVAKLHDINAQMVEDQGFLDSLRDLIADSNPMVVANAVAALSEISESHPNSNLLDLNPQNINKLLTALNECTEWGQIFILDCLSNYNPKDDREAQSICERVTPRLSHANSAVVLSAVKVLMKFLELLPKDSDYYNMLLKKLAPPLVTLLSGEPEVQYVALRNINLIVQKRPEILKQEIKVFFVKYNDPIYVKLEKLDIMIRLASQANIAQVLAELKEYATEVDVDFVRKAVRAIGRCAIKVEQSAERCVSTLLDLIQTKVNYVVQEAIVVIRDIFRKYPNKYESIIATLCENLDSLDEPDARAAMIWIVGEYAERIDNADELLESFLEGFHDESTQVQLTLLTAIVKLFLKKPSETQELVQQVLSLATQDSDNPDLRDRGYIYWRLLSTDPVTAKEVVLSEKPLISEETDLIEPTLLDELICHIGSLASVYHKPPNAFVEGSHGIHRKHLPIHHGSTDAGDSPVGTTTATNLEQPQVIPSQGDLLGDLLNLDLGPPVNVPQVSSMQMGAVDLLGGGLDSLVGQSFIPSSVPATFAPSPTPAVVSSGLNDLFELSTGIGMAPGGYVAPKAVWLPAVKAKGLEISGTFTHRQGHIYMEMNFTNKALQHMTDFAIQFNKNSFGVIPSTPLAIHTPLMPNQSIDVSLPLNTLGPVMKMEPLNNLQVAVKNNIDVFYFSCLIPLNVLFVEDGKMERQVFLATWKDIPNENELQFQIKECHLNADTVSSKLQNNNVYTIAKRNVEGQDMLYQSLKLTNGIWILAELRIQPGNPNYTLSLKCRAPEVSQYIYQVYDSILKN

[3] = target: T2, clathrin-N (clathrin heavy chain 1 N-terminal domain, residues 1–364) (UniProt Q00610 1-364); assay: NMR titration; 50 μM 15N,2H-labelled clathrin-N observed (1H-15N HSQC-TROSY, 900 MHz), unlabelled arrestin2 construct added up to equimolar, no phosphopeptide; 20 mM HEPES, 150 mM NaCl, pH 7.4, 303 K; details: both partners purified
T2 construct: the construct used here is 1–364; Tag removed with 3C protease; pETM33 may add GST besides the His tag (surmise); Used 15N,2H-labelled or unlabelled; also called clathrin heavy chain N-terminal domain; CLTC Clathrin propeller; source: E. coli BL21 (DE3), purified (Ni-NTA, reverse IMAC, gel filtration)
T2 sequence (looked up): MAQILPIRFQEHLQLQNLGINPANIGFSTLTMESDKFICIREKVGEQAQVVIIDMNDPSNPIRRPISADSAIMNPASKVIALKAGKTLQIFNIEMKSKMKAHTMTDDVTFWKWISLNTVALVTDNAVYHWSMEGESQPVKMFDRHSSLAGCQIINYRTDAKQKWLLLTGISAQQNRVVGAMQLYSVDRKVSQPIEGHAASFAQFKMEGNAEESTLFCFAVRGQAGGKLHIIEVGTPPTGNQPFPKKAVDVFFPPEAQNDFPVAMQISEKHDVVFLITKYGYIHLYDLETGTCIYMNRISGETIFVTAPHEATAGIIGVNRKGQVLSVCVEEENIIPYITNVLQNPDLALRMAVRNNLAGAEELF

[4] = target: T2, clathrin-N (clathrin heavy chain 1 …); assay: NMR titration; 50 μM Ile-δ1-13CH3,2H-labelled arrestin2^1-393 observed (1H-13C HMQC), unlabelled clathrin-N up to 600 μM; I377 13C shifts fitted with a 1:1 isotherm; apparent; 20 mM HEPES, 150 mM NaCl, pH 7.4, 303 K; details: both partners purified

Chain of CCR5pp3 phosphopeptide C-terminal phosphopeptide (Homo sapiens) (P51681 332-352): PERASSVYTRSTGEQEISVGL

For “arrestin β20 peptide 383-402 (from UniProt P49407)”, the Kd (AP2β2 (Homo sapiens)) is given as 9 µM.

Molecule “AP2β2^701-937 (C-terminal domain of the β2 subunit of the AP2 complex, residues 701–937) (from UniProt P63010 701-937) (domain or fragment)” has a protection of CCR5pp6-activated arrestin2^1-418 from trypsin: proteolysis midpoint at 1-, 2- and 5-molar equivalents of AP2β2^701-937 (10 to 30 min) [1] of 30 min.

For arrestin2 (from UniProt P49407), the Kd [2] is listed as 200 µM.

B1: arrestin2 (protein)
chain: MGDKGTRVFKKASPNGKLTVYLGKRDFVDHIDLVDPVDGVVLVDPEYLKERRVYVTLTCAFRYGREDLDVLGLTFRKDLFVANVQSFPPAPEDKKPLTRLQERLIKKLGEHAYPFTFEIPPNLPCSVTLQPGPEDTGKACGVDYEVKAFCAENLEEKIHKRNSVRLVIRKVQYAPERPGPQPTAETTRQFLMSDKPLHLEASLDKEIYYHGEPISVNVHVTNNTNKTVKKIKISVRQYADICLFNTAQYKCPVAMEEADDTVAPSSTFCKVYTLTPFLANNREKRGLALDGKLKHEDTNLASSTLLREGANREILGIIVSYKVKVKLVVSRGGLLGDLASSDVAVELPFTLMHPKPKEEPPHREVPENETPVDTNLIELDTNDDDIVFEDFARQRLKGMKDDKEEEEDGTGSPQLNNR
modifications: CCR5pp4 phosphopeptide
In the case of B1, the Kd (AP2β2) is reported as 44 µM.

B2: arrestin2 (protein)
chain: B1 chain
modifications: CCR5pp3 phosphopeptide
B2 gave a Kd (AP2β2) of 40 µM.

B3: arrestin2 (protein)
chain: B1 chain
modifications: CCR5pp6 phosphopeptide
With B3 the Kd (AP2β2) was 9 µM.

B4: arrestin2^1-393 (truncated human arrestin2, residues 1–393) (domain or fragment)
chain: MGDKGTRVFKKASPNGKLTVYLGKRDFVDHIDLVDPVDGVVLVDPEYLKERRVYVTLTCAFRYGREDLDVLGLTFRKDLFVANVQSFPPAPEDKKPLTRLQERLIKKLGEHAYPFTFEIPPNLPCSVTLQPGPEDTGKACGVDYEVKAFLAENLEEKIHKRNSVRLVIRKVQYAPERPGPQPTAETTRQFLMSDKPLHLEASLDKEIYYHGEPISVNVHVTNNTNKTVKKIKISVRQYADIVLFNTAQYKVPVAMEEADDTVAPSSTFSKVYTLTPFLANNREKRGLALDGKLKHEDTNLASSTLLREGANREILGIIVSYKVKVKLVVSRGGLLGDLASSDVAVELPFTLMHPKPKEEPPHREVPENETPVDTNLIELDTNDDDIVFEDFAR
modifications: Cys replacements inferred from the printed arrestin2-ΔCBL sequence (L150, V242, V251, S269), assumed to share the parent construct of Isaikina et al. 2023; not stated in this text for 1-393. Isotope …
In the case of B4, the “stoichiometry N” value [3] is reported as 1 and the Kd [4] is reported as 104 ± 9 µM.
